From patent US20060058230A1 (published 2006)
Non-standard residues stand in square brackets, D forms with d. No end group written: not given here. 2Nal = N[C@@H](Cc1ccc2ccccc2c1)C(=O)O; 2Thi = N[C@@H](Cc1cccs1)C(=O)O; β3hL = CC(C)C[C@H](N)CC(=O)O; Nle = CCCC[C@H](N)C(=O)O; βAla = NCCC(=O)O

T1: PTH receptor on SaOS-2/B10 cells (UniProt Q03431 27-593)
T1 sequence (looked up): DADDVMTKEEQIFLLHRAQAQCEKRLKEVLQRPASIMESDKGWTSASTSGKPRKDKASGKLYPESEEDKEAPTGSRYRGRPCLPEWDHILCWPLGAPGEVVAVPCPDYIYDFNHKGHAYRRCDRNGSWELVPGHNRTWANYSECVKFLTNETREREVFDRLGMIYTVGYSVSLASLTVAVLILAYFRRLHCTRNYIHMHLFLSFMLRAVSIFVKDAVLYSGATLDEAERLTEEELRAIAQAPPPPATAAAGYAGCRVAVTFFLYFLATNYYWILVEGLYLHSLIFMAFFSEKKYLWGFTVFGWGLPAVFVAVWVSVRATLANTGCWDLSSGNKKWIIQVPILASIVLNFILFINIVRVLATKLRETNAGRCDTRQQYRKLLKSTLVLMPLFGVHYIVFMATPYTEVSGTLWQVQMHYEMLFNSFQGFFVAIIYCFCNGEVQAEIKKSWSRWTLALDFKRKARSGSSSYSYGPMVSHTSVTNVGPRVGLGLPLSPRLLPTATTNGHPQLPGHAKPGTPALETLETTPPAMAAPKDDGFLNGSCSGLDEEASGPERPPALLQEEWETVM

T2: recombinant hPTH1-receptor (human, UniProt Q03431 27-593)
T2 sequence (looked up): T1 sequence (looked up)

B1: [Glu^22,25,29, Leu^23,28,31, Lys^26,30, Thi^32]hPTHrP(1-34)NH2 (peptide)
peptide: AVSEHQLLHDKGKSIQDLRRRELLEKLLEKL[2Thi]TA-NH2
modifications: N-terminus assumed
SMILES: CC[C@H](C)[C@H](NC(=O)[C@H](CO)NC(=O)[C@H](CCCCN)NC(=O)CNC(=O)[C@H](CCCCN)NC(=O)[C@H](CC(=O)O)NC(=O)[C@H](Cc1c[nH]cn1)NC(=O)[C@H](CC(C)C)NC(=O)[C@H](CC(C)C)NC(=O)[C@H](CCC(N)=O)NC(=O)[C@H](Cc1c[nH]cn1)NC(=O)[C@H](CCC(=O)O)NC(=O)[C@H](CO)NC(=O)[C@@H](NC(=O)[C@H](C)N)C(C)C)C(=O)N[C@@H](CCC(N)=O)C(=O)N[C@@H](CC(=O)O)C(=O)N[C@@H](CC(C)C)C(=O)N[C@@H](CCCNC(=N)N)C(=O)N[C@@H](CCCNC(=N)N)C(=O)N[C@@H](CCCNC(=N)N)C(=O)N[C@@H](CCC(=O)O)C(=O)N[C@@H](CC(C)C)C(=O)N[C@@H](CC(C)C)C(=O)N[C@@H](CCC(=O)O)C(=O)N[C@@H](CCCCN)C(=O)N[C@@H](CC(C)C)C(=O)N[C@@H](CC(C)C)C(=O)N[C@@H](CCC(=O)O)C(=O)N[C@@H](CCCCN)C(=O)N[C@@H](CC(C)C)C(=O)N[C@@H](Cc1cccs1)C(=O)N[C@H](C(=O)N[C@@H](C)C(N)=O)[C@@H](C)O
notes: Synthetic analog of human PTHrP(1-34), carboxamide at the C-terminus
B2: [Glu^25,29, Leu^23,27,31, Lys^30]hPTH(1-34)NH2 (peptide)
peptide: SVSEIQLMHNLGKHLNSMERVELLEKLLEKLHNF-NH2
notes: Synthetic analog of human PTH(1-34), carboxamide at the C-terminus
B3: [Glu^25,29, Lys^30]hPTH(1-34)NH2 (peptide)
peptide: SVSEIQLMHNLGKHLNSMERVEWLEKKLEKVHNF-NH2
notes: as for B2
B4: [Leu^23,27,31]hPTH(1-34)NH2 (peptide)
peptide: SVSEIQLMHNLGKHLNSMERVELLRKLLQDLHNF-NH2
notes: as for B2
B5: [Glu^22,25,29, Lys^26,30]hPTHrP(1-34)NH2 (peptide)
peptide: AVSEHQLLHDKGKSIQDLRRREFLEKLIEKIHTA-NH2
notes: as for B1
B6: [Leu^23,28,31]hPTHrP(1-34)NH2 (peptide)
peptide: AVSEHQLLHDKGKSIQDLRRRFLLHHLLAELHTA-NH2
notes: as for B1
B7: [Glu^22,25,29, Leu^23,28,30,31, Lys^26]hPTHrP(1-34)NH2 (peptide)
peptide: AVSEHQLLHDKGKSIQDLRRRELLEKLLELLHTA-NH2
notes: as for B1
B8: [Nle^8,18, β-Ala^19, Nal^23, Tyr^34]bPTH(1-34)NH2 (peptide)
peptide: AVSEIQF[Nle]HNLGKHLSS[Nle][βAla]RVE[2Nal]LRKKLQDVHNY-NH2
modifications: N-terminus assumed
SMILES: CCCC[C@H](NC(=O)[C@H](CO)NC(=O)[C@H](CO)NC(=O)[C@H](CC(C)C)NC(=O)[C@H](Cc1c[nH]cn1)NC(=O)[C@H](CCCCN)NC(=O)CNC(=O)[C@H](CC(C)C)NC(=O)[C@H](CC(N)=O)NC(=O)[C@H](Cc1c[nH]cn1)NC(=O)[C@H](CCCC)NC(=O)[C@H](Cc1ccccc1)NC(=O)[C@H](CCC(N)=O)NC(=O)[C@@H](NC(=O)[C@H](CCC(=O)O)NC(=O)[C@H](CO)NC(=O)[C@@H](NC(=O)[C@H](C)N)C(C)C)[C@@H](C)CC)C(=O)NCCC(=O)N[C@@H](CCCNC(=N)N)C(=O)N[C@H](C(=O)N[C@@H](CCC(=O)O)C(=O)N[C@@H](Cc1ccc2ccccc2c1)C(=O)N[C@@H](CC(C)C)C(=O)N[C@@H](CCCNC(=N)N)C(=O)N[C@@H](CCCCN)C(=O)N[C@@H](CCCCN)C(=O)N[C@@H](CC(C)C)C(=O)N[C@@H](CCC(N)=O)C(=O)N[C@@H](CC(=O)O)C(=O)N[C@H](C(=O)N[C@@H](Cc1c[nH]cn1)C(=O)N[C@@H](CC(N)=O)C(=O)N[C@@H](Cc1ccc(O)cc1)C(N)=O)C(C)C)C(C)C
notes: Synthetic analog of bovine PTH(1-34), carboxamide at the C-terminus
B9: [Nle^8, β-hLeu^18, β-Ala^19, Nal^23, Tyr^34]bPTH(1-34)NH2 (peptide)
peptide: AVSEIQF[Nle]HNLGKHLSS[β3hL][βAla]RVE[2Nal]LRKKLQDVHNY-NH2
modifications: N-terminus assumed
SMILES: CCCC[C@H](NC(=O)[C@H](Cc1ccccc1)NC(=O)[C@H](CCC(N)=O)NC(=O)[C@@H](NC(=O)[C@H](CCC(=O)O)NC(=O)[C@H](CO)NC(=O)[C@@H](NC(=O)[C@H](C)N)C(C)C)[C@@H](C)CC)C(=O)N[C@@H](Cc1c[nH]cn1)C(=O)N[C@@H](CC(N)=O)C(=O)N[C@@H](CC(C)C)C(=O)NCC(=O)N[C@@H](CCCCN)C(=O)N[C@@H](Cc1c[nH]cn1)C(=O)N[C@@H](CC(C)C)C(=O)N[C@@H](CO)C(=O)N[C@@H](CO)C(=O)N[C@H](CC(=O)NCCC(=O)N[C@@H](CCCNC(=N)N)C(=O)N[C@H](C(=O)N[C@@H](CCC(=O)O)C(=O)N[C@@H](Cc1ccc2ccccc2c1)C(=O)N[C@@H](CC(C)C)C(=O)N[C@@H](CCCNC(=N)N)C(=O)N[C@@H](CCCCN)C(=O)N[C@@H](CCCCN)C(=O)N[C@@H](CC(C)C)C(=O)N[C@@H](CCC(N)=O)C(=O)N[C@@H](CC(=O)O)C(=O)N[C@H](C(=O)N[C@@H](Cc1c[nH]cn1)C(=O)N[C@@H](CC(N)=O)C(=O)N[C@@H](Cc1ccc(O)cc1)C(N)=O)C(C)C)C(C)C)CC(C)C
notes: as for B8
B10: [Nle^8, β-Ala^17,19, β-hLeu^18, Nal^23, Tyr^34]bPTH(1-34)NH2 (peptide)
peptide: AVSEIQF[Nle]HNLGKHLS[βAla][β3hL][βAla]RVE[2Nal]LRKKLQDVHNY-NH2
modifications: N-terminus assumed
SMILES: CCCC[C@H](NC(=O)[C@H](Cc1ccccc1)NC(=O)[C@H](CCC(N)=O)NC(=O)[C@@H](NC(=O)[C@H](CCC(=O)O)NC(=O)[C@H](CO)NC(=O)[C@@H](NC(=O)[C@H](C)N)C(C)C)[C@@H](C)CC)C(=O)N[C@@H](Cc1c[nH]cn1)C(=O)N[C@@H](CC(N)=O)C(=O)N[C@@H](CC(C)C)C(=O)NCC(=O)N[C@@H](CCCCN)C(=O)N[C@@H](Cc1c[nH]cn1)C(=O)N[C@@H](CC(C)C)C(=O)N[C@@H](CO)C(=O)NCCC(=O)N[C@H](CC(=O)NCCC(=O)N[C@@H](CCCNC(=N)N)C(=O)N[C@H](C(=O)N[C@@H](CCC(=O)O)C(=O)N[C@@H](Cc1ccc2ccccc2c1)C(=O)N[C@@H](CC(C)C)C(=O)N[C@@H](CCCNC(=N)N)C(=O)N[C@@H](CCCCN)C(=O)N[C@@H](CCCCN)C(=O)N[C@@H](CC(C)C)C(=O)N[C@@H](CCC(N)=O)C(=O)N[C@@H](CC(=O)O)C(=O)N[C@H](C(=O)N[C@@H](Cc1c[nH]cn1)C(=O)N[C@@H](CC(N)=O)C(=O)N[C@@H](Cc1ccc(O)cc1)C(N)=O)C(C)C)C(C)C)CC(C)C

Target: T1, PTH receptor on SaOS-2/B10 cells
Assay: cell-based or functional assay

| EC50 (half maximal stimulation of adenylate cyclase) [nM] | Molecule |
| --- | --- |
| 10 | B1 |
| 24 | B2 |
| 25.5 | B3 |
| 1.12 | B4 |
| 0.42 | B5 |
| 0.74 | B6 |
| 5 | B7 |

Target: T2, recombinant hPTH1-receptor
Assay: cell-based or functional assay

| EC50 (half maximal stimulation of adenylate cyclase) [nM] | Molecule |
| --- | --- |
| 13.8 | [Nle^8, β-Ala^18,19, Nal^23, Tyr^34]bPTH(1-34)NH2 (peptide) |
| 1.51 | B8 |
| 2.73 | B9 |
| 9.97 | B10 |

Target: T1, PTH receptor on SaOS-2/B10 cells
Assay: competition with mono-125I-[Nle8,18,Tyr34]bPTH(1-34)NH2 on SaOS-2/B10 cells
Experimental: SaOS-2/B10 cells were maintained for four days after they had reached confluence. The medium was replaced with 5% FBS […] medium and incubated for 2 hrs at room temperature with 10×10⁴ cpm mono-¹²⁵I-[Nle^{8,18},Tyr³⁴(3-¹²⁵I)]bPTH(1-34)NH₂ in the presence or absence of a competing tested polypeptide of the invention. The cells were washed four times with ice-cold PBS and lysed with 0.1M NaOH, and the radioactivity associated with the cells was counted in a scintillation counter. Synthesis of the radiolabelled [Nle^{8,18},Tyr³⁴(3-¹²⁵I)]bPTH(1-34)NH₂ was carried out as described in Goldman M. E., et al., Endocrinology, (1988), 123, 1468-1475.
The binding assay was conducted on the polypeptides of the invention having SEQ ID NO:5, 6, 7, 9, 10, 11, and 12.

| IC50 [nM] | Molecule |
| --- | --- |
| 90 | B1 |
| 216 | B2 |
| 30 | B3 |
| 41 | B4 |
| 5.5 | B5 |
| 18.3 | B6 |
| 70 | B7 |

Target: T2, recombinant hPTH1-receptor
Assay: competition with 125I-[Nle8,18,Nal23,Tyr34]bPTH(1-34)NH2 on HEK293/C21 cells with hPTH1-receptor
Experimental: Human embryonic kidney (HEK293) cells, stably transfected with recombinant hPTH1-receptor (HEK293/C21 cell line, ˜400,000 receptors/cell) (Pines, M., Adams, A. E., Stueckle, S., Bessalle, R., Rashti-Behar, V., Chorev, M., Rosenblatt, M., and Suva, L. J. Endocrinology 1994, 135, 1713-1716), were maintained in D-MEM medium supplemented with 10% fetal bovine serum and […] glutamine at 37° C. in a humidified atmosphere of 95% air/5% CO₂. The medium was changed every 3-4 days, and the cells were subcultured every week. Ligand stimulated adenylyl cyclase activity and radioreceptor competition binding assays were performed on confluent cultures, 1-3 days after a change of medium.
[Nle^{8,18},Nal²³,Tyr³⁴]bPTH(1-34)-NH₂ was radioiodinated and the crude material was purified as previously described (Roubini, E., Duong, L. T., Gibbons, S. W., Leu, C. T., Caulfield, M. P., Chorev, M., and Rosenblatt, M. Biochemistry 1992, 31, 4026-4033). Briefly, 67 μg of peptide in 50 μL phosphate buffer, pH 7.4, in a borosilicate tube, coated with 10 μg Iodogen® (Pierce Chemical), were treated at room temperature with 2 mCi [¹²⁵I]Na for 12 min, followed by dilution with 200 μL of 0.1% TFA in water.
Cells were plated in 24-well tissue culture dishes (Corning Glass Works, Corning, N.Y.) and grown to subconfluency. […] After incubation, cells were washed twice with PBS and lysed with 0.1 M NaOH. Radioactivity in the lysate was measured in a γ-counter (Analytic GammaTrac™ 1193).

| IC50 [nM] | Molecule |
| --- | --- |
| 59 | B8 |
| 117 | B9 |
